Experimental data as given in the Human Domainome abundance scans (Beltran et al. 2025).
± gives the uncertainty stated by the source.

B1: Lysine-specific demethylase 2B, residues 656 to 722; numbered along this chain, Q8NHM5 (parent)
chain: LPHTAVCLVCGEAGKEDTVEEEEGKFNLMLMECSICNEIIHPGCLKIKESEGVVNDELPNCWECPKC

Variants of: B1
Assay: abundance fitness (aPCA) (normalised: wild type 0, dead -1); higher = more abundant; growth selection in yeast, the domain comes from the species named
Conditions: Homo sapiens

Variant | abundance fitness
G24S | 0.15 ± 0.082
G24C | -0.415 ± 0.11
G24L | 0.045 ± 0.071
G24T | 0.019 ± 0.099
G24A | 0.011 ± 0.078
I35K | -0.057 ± 0.12
I35T | 0.147 ± 0.15
I35Y | -0.548 ± 0.28
P42D | -0.644 ± 0.22
P42K | -0.285 ± 0.15
P42H | 0.019 ± 0.18
P42A | -0.34 ± 0.09
L30Q | -0.337 ± 0.23
V6H | 0.409 ± 0.22
V6W | -0.759 ± 0.2
V6G | -0.64 ± 0.12
V6T | 0.12 ± 0.13
C64Y | -0.804 ± 0.27
C64M | -0.923 ± 0.2
C64G | -0.889 ± 0.1
C64R | -0.888 ± 0.093
C64W | -0.775 ± 0.17
N37A | 0.094 ± 0.085
N37H | 0.081 ± 0.12

Variant | abundance fitness
L28M | 0.364 ± 0.098
L28T | 0.241 ± 0.11
E16S | -0.204 ± 0.13
E16D | -0.609 ± 0.19
E16P | -0.043 ± 0.1
E16I | -0.467 ± 0.22
P2N | 0.758 ± 0.17
K46P | 0.077 ± 0.089
K46R | 0.016 ± 0.064
K46I | -0.311 ± 0.15
K46G | 0.205 ± 0.078
K46Y | 0.042 ± 0.43
K25H | -0.31 ± 0.17
K25M | -0.238 ± 0.087
K25W | -0.859 ± 0.31
K25N | -0.118 ± 0.18
K25A | -0.242 ± 0.11
K25T | -0.432 ± 0.17
E49L | -0.077 ± 0.075
E49K | -0.123 ± 0.13
K66Q | -0.551 ± 0.25
D17G | 0.104 ± 0.091
V9C | -0.817 ± 0.26
V9R | -0.297 ± 0.1

Variant | abundance fitness
P65A | -0.133 ± 0.077
P65D | -0.547 ± 0.25
P65I | -0.899 ± 0.31
E20W | -0.4 ± 0.11
P59N | 0.214 ± 0.14
P59D | -0.424 ± 0.24
V54P | -0.065 ± 0.25
V54C | -0.275 ± 0.16
E23S | 0.185 ± 0.11
E23F | -0.058 ± 0.26
E23V | 0.035 ± 0.097
V53L | -0.119 ± 0.081
V53G | -0.078 ± 0.096
V53Q | 0.164 ± 0.094
V53M | -0.045 ± 0.11
V53S | 0.006 ± 0.1
A13W | -0.228 ± 0.088
A13V | 0.085 ± 0.075
T4G | -0.623 ± 0.17
D56Q | -0.049 ± 0.094
D56C | -0.233 ± 0.31
I47V | 0.006 ± 0.068
I47F | -0.047 ± 0.19
I47N | -0.307 ± 0.29

Variant | abundance fitness
I47Q | -0.167 ± 0.18
K15C | -0.611 ± 0.14
K15E | -0.175 ± 0.17
K15R | -0.355 ± 0.11
K15M | 0.12 ± 0.092
C61W | -0.171 ± 0.12
E57T | -0.007 ± 0.13
E57D | 0.103 ± 0.13
E57L | -0.042 ± 0.087
E57I | -0.196 ± 0.16
E57A | 0.053 ± 0.083
E57Y | -0.179 ± 0.18
E57V | -0.168 ± 0.085
I39L | -0.125 ± 0.073
I39W | -0.157 ± 0.095
I39T | -0.053 ± 0.13
V19F | 0.151 ± 0.21
V19E | -0.469 ± 0.13
E32H | 0.103 ± 0.12
E32M | 0.142 ± 0.1
N27S | -0.085 ± 0.076
N27G | -0.113 ± 0.058
G43L | -0.536 ± 0.088
C33M | -0.642 ± 0.14

Variant | abundance fitness
C33S | -0.716 ± 0.22
C33W | -1.02 ± 0.27
E21S | 0.305 ± 0.068
E21P | 0.033 ± 0.15
E21W | -0.354 ± 0.11
C36H | -1.18 ± 0.43
W62Q | -0.601 ± 0.28
W62F | -0.014 ± 0.34
W62K | -0.339 ± 0.17
W62P | -0.17 ± 0.12
W62Y | -0.296 ± 0.42
E51G | -0.197 ± 0.096
E51T | 0.072 ± 0.096
E51V | -0.124 ± 0.076
F26S | -0.343 ± 0.12
F26V | -0.164 ± 0.072
F26Y | -0.234 ± 0.15
F26T | -0.155 ± 0.14
F26G | -0.278 ± 0.067
F26L | -0.297 ± 0.097
S50F | 0.039 ± 0.2
E12A | -0.139 ± 0.081
E12W | -0.224 ± 0.085
N60C | -0.368 ± 0.18

Variant | abundance fitness
M31H | -0.25 ± 0.12
M31G | -0.485 ± 0.16
G11E | -0.174 ± 0.1
G11R | -0.051 ± 0.06
G11C | -0.541 ± 0.19
G11F | -0.063 ± 0.14
G11N | -0.382 ± 0.24
K48P | -0.159 ± 0.19
H41R | -0.943 ± 0.12
G52T | -0.122 ± 0.1
G52D | -0.121 ± 0.097
G52C | -0.051 ± 0.2
G52R | 0.067 ± 0.069
L58K | 0.14 ± 0.12
L58R | 0.076 ± 0.082
L58H | 0.194 ± 0.16
L58A | -0.454 ± 0.23
L45R | -0.002 ± 0.056
L45S | 0.081 ± 0.097
L45D | -0.483 ± 0.17
L45H | -0.188 ± 0.18
L45V | -0.092 ± 0.074
M29D | -0.552 ± 0.26
M29H | -0.31 ± 0.27

Variant | abundance fitness
M29I | -0.652 ± 0.36
M29R | 0.278 ± 0.079
C10W | -1.14 ± 0.21
C10V | -1 ± 0.25
N55Q | -0.189 ± 0.22
N55C | -0.202 ± 0.37
L1H | -0.174 ± 0.48
L1T | 0.035 ± 0.1
L1S | -0.069 ± 0.089
E38T | -0.57 ± 0.2
E38A | -0.356 ± 0.093
L8G | -0.588 ± 0.17
A5E | -0.696 ± 0.29
A5K | 0.038 ± 0.17
A5S | -0.192 ± 0.15
A5W | 0.055 ± 0.17
G14R | 0.04 ± 0.069
G14T | -0.24 ± 0.097
G14V | -0.139 ± 0.082
T18V | -0.569 ± 0.15
E22K | 0.261 ± 0.12
E22V | -0.049 ± 0.082
E22N | -0.162 ± 0.29
